From US20120282271

Columns and labels:
[1] = test system: pro-MSP (single-chain recombinant human pro-macrophage-stimulating protein, C672A)
[2] = test system: pro-MSP-R483E (cleavage-site mutant of pro-MSP)
Sequence of pro-MSP-R483E (cleavage-site mutant of pro-MSP) (chain, as listed by the source R483E): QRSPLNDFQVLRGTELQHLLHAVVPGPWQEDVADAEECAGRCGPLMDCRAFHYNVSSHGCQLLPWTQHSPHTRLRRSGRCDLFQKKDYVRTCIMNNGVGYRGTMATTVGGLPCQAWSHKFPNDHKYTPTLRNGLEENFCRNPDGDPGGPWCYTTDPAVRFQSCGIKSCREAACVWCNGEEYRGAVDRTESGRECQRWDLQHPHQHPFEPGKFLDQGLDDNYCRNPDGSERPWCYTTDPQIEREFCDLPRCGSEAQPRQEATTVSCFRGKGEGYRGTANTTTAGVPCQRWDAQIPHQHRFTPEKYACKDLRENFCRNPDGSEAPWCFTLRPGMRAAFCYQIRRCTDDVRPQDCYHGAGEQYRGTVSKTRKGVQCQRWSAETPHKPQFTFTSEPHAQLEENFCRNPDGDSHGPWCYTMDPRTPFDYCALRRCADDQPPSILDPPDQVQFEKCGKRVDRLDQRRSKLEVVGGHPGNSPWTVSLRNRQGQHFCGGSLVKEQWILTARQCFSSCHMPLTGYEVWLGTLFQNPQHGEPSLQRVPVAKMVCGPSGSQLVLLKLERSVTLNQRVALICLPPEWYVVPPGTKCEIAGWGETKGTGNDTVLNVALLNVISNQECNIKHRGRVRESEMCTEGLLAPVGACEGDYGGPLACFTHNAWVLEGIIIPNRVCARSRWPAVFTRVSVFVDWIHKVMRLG

Sequence of extracellular domain of human recombinant hepsin (chain, as listed by the source): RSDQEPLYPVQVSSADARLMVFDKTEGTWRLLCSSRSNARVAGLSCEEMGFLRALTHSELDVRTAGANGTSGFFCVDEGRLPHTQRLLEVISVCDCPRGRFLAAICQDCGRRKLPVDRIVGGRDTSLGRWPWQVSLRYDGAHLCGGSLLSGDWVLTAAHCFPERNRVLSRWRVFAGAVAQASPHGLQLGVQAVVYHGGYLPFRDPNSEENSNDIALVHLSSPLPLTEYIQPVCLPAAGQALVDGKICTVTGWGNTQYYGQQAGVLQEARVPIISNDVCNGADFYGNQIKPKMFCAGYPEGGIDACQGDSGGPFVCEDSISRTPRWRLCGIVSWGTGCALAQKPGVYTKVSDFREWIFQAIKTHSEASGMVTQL

**Q.** “extracellular domain of human recombinant hepsin” was tested. Which “proteolytic activation of pro-MSP, gel-mobility shift on reducing SDS-PAGE (hepsin 1.25-10 nM, 37° C.)” value [1] did it give?
**A.** The value was “Hepsin activated pro-MSP in a dose-dependent and time dependent manner”.

**Q.** And the “proteolytic processing by hepsin, SDS-PAGE” value [2]?
**A.** The value was “Hepsin did not cleave this mutant pro-MSP despite prolonged incubation (24 hours)”.
